Test: label from the status in PepcDB records

Sequence | protein production
MKRKISSIIVVGIMLFQSLTMYPFITEAKENEQKEEINKPSKITKGLTNSLKYTKTILETGDTYDSVFPDSALAKVVAKEATGSENTTQLVTQADLNKIKSLNGYNKGISVLTGIDLLVNVTSISLNNNQVTDISPIDQLPNLVSLSVKNNQISSLILNAQNQLPKLTTIDIENNPDLNTIDIQDQPQLVDVKTSGYTGLRKLTTVIAKNNPELVNLGQYTIRNVYFSQVASLTKVELVNLPKVRKVNLERNSINELKVTDLAIEDLPLEENELTDTVFDNIQNLPNLKTLDLSKNQLEEVVLDKTDVENLPNLMTLDIQQNLAIKLINVQDQPQLVDVKTSDYKELSALTTVIAKNNPELVNLGQYTIRNVYFSQVASLTKVELVNLPKVRKVNLERNSINELKVTDLAIEDLPLEENELTDTVFDNIQNLPNLKTLDLSKNQLEEVVLDKTDVENLPNLMTLDIQQNLAIKLINVQDQPQLVDVKTSDYKELSALTTVIAKNNPELVNLGYPIMQNVYFSQVASLTKVELANLPKVRAVRLERNSINQIELNNLVSVKDVNLNTNKITNDSIEKFRGMPILATLNLNKNQITNINMLDGFPQMTTLNIDLNSISVLPSNLKTKMPKLSRISALNQTVTLGKAIVVDDSDLIINNEISNFEKLTEPSPISNFGTYANEKITWSSERIKNLTEVSFQFSELINVTGIDGTFSGKVTQPFKRSTTPVINADSEIHYPQGTEKTEAEFLKDVQAQTTDDLAIKSDFETMVNLKKVGKYTVTLNVENLDGIKATPKEVIVYIDAVQGANITVKYEDESGNKLAENSILTGNVGEEYSSSAKEILGYTLTEMPSNAQGEFSLEEQTVTYIYSKNPVPAKDITVQYTDEDGMELAPTETLSGNVDENYVTTAKTFTGYELIETPSNAEGKFSENAQTVTYVYRAIKAEPILAKEVTVNYQDELGAKISETEVLTGEIGETYTTVAKTIDGYTLIKSPTNANGIFNENPQTVTYVYQLQNSPIAANITVKHLDENNNELAPSEVLSGNVDEAYTTKPKEIKDYSLVKVPTNASGKFTTEAQTVIYHYKKNSIPTSSYITVKYVDETGKELAISKVLNGNINDSYATTAKEIKGYTLVQKPANATGKFTDQNQTIKYVYRANKAEVNPNPNSDVLGSNSNGDIQPTNDIKPTNDVQPTNEAPQTLPKTGSQPANLIFGLGILLVLLSTQWLHRNKRKKAKSHNC | failed
MKRKKPTIHDVAAKAGVGLGTVSRVLNDHPAVRHETRARVLRAMEELGYAPNPHARRIAGGRSYTVSVLLPFVATEFYRRLVEGIEGVLLEQRYDLALFPILSLARLKRYLENTTLAYLTDGLILASYDLTERFEEGRLPTERPVVLVDAQNPRYDSVYLDNRLGGRLAGAYLARFPGPIFAIAVEEEPDRAFRRTVFAERMAGFQEALKEAGRPFSPDRLYITRHSQEGGRLALRHFLEKASPPLNVFAGADQV | not failed
MKRKTLLMAALMGGCSLQGMAQQITPKDVAGDKEYNRVCREYELKGGDSMELLQAYLDKYPDSRHKNRVLSLIASAYFMEGKYKEAIALFRSCDLEALPDKERDDCAMRLATSYLKEDNLREAAVWFTLLKEVSPLYQDDAVYNLAYIDYVEKRYDKALKSFQSLQNDAVYAALVPYYIGEIYLVKGNYQQARTVAKAYLEQYPAKKDVPQMERIWGEACFGLNDYQAAIPPLERYRESVSHPQRKPLYELGMSYYYTGVYSKAAATLGEMASVHDALSQNAYLHMGLAYLNLKERNRARMAFEQAANFSFDPKVKEQALYNYALCIHETSYSPFAESVTVFERFLNEFPNSPYTERVNDYLIEVYMNTRSYEAALKSIAKIEHPGTRIMEAKQKILFRLGTQAFANARFQEALEFFNQSLAVGQYNQATKADAYFWRGESNYRLDRFPQAGNDYRLYLEFATSKNGQEYGLALYNLGYTYFKQKNYGNAGTWFTRFVDRGSINERTMQADAYNRIGDCNFYDRRFEQARQDYARAVEIDPSLGDYSLYQEAFVRGLQRDYNGKVQTLNRLISDYPESQYMDDALYEQGRAFVQMEDNANAIARFNILVKKFPESNVARRAANEIGLLYYQDDKYPEAIQAYKQVIAGYPGSEEARLAQRDLKSIYIDLNKVDEYANFASTIPGGANFDVNERDSLTYVAAERVYMRGEVAEARNSFTRYLQTFPEGAFSLNANYYIGLIDYNQKAYESAARHLDKVLEYPNNKYSEDAMLMGAEMAYTAKDYEKALHIYKQLKDKAASMERRRLAKTGMLRSAHMLGNEEEIIFAATDLLADTKLAPELSNEAHYYRAKAYLDAGKTDGAMEDLKVLAKDTRNVYGAEAKYKVAQIYFDGGQTDKAEQEVLNYIEVSTPHTYWLARSFVLLADVYMKLGRNLDAKQYLLSLKQNYQADDDIAGMIESRLEKLKTEN | failed
MKRLFIASLLAFAPFTWALDQAGSQRLSDLQQRWAQIQYQMPKDKRADAFEKLAGDAATFVRQYPGTPEPLIWEGIINSSWAGATGGLGALGKVKAAKASLEQAMKLDPAALQGSAYTSLGTLYDQVPGWPIGFGDAEMADKMLRKALQINPNGIDSNYFWADHLYRQKRYPEATAALQKALQAPPRPGRELADQGRRADIDALLKTIKDKQD | failed
MKRNNKSAIALIALSLLALSSGAAFAGHHWGNNDGMWQQGGSPLTTEQQATAQKIYDDYYTQTSALRQQLISKRYEYNALLTASSPDTAKINAVAKEMESLGQKLDEQRVKRDVAMAQAGIPRGAGMGYGGCGGYGGGYHRGGGHMGMGNW | not failed
MKRPRGKPLFKPVKERNPVAVGVAGLLVLTLVALLVYNVDRLPFGGGTTYSADFSESAGLDEGDEVRIAGVKVGQVTGVALDGAKVKVSFEVEDAWIGDRTTAAIAIKTVLGDKYLALDPLGSGRQDPGARIPLARTTSPYDVTQAFQDLSGTVDDIDTGRLAESFETISDTFKDSPPHVRKAATGLSDLSKSISKRDAKLSELLKGSARFTKTLENNKSSFETLIEDGGPLLGELRDRRTAINALLKGSQDLGTELGGLVKDNEKQLGPTLKALGRVTSVLEKNNTRLGETLALVGPYYRLVGNTLGNGRWFDSYLCGVVPRDYLPETSQPSTGCLPPKQPAAAQGSGARLEHHHHHH | failed
MKRSCMPARSNRNRINSALRGQLLRYLLNGLVATAVHYTILRFTLEVLGLHSAGLANGIAAIFGIIVSFIGNRYFVFRIVQVPLAKQALLFILTYFCIALIHTCILYFWTDVYNLNYTLGFLMATAMQVVFSFFSNKFMVFK | failed
MKRSSLLVRMVISIFLVFLILLALVGTFYYQSSSSAIEATIEGNSQTTISQTSHFIQSYIKKLETTSTGLTQQTDVLAYAENPSQDKVEGIRDLFLTILKSDKDLKTVVLVTKSGQVISTDDSVQMKTSSDMMAEDWYQKAIHQGAMPVLTPARKSDSQWVISVTQELVDAKGANLGVLRLDISYETLEAYLNQLQLGQQGFAFIINENHEFVYHPQHTVYSSSSKMEAMKPYIDTGQGYTPGHKSYVSQEKIAGTDWTVLGVSSLEKLDQVRSQLLWTLLGASVTSLLVCLCLVWFSLKRWIAPLKDLRETMLEIASGAQNLRAKEVGAYELREVTRQFNAMLDQIDQLMVAIRSQEETTRQYQLQALSSQINPHFLYNTLDTIIWMAEFHDSQRVVQVTKSLATYFRLALNQGKDLICLSDEINHVRQYLFIQKQRYGDKLEYEINENVAFDNLVLPKLVLQPLVENALYHGIKEKEGQGHIKLSVQKQDSGLVIRIEDDGVGFQDAGDSSQSQLKRGGVGLQNVDQRLKLHFGANYHMKIDSRPQKGTKVEIYINRIETS | failed
MKRSTEFLKSLDVKLILILLALCVTSIAAIYSSQQTGQYGESNFAMKQGLNYIIGVVLLLLVASIDLDQLQKLSWPLYIVGFASLILLKILPVSTFTPEKLGAKRWFVFPLVGQIQPSEFFKISLLLVVASIAVKHNAQYMARTFQTDLKLVGKIVLVSLPPIAVVYSQPDTGMVFLYAAAIACILFMSGIQKKLIALCTVIPVTILSTLIFIYVRYEDFFFNKLVTLLKPHQQSRILGWLDPFEHTDQGYQTQQSILAVGSGGMEGKGFGEGNVYIPEKHTDFIFATIAEEGGFIVAALVVFLFLLLLYRTIIIGYSADNLFGTLLCAGSIGILTVQIFQNIGMIVGLMPVKGIALPFLSYGGSSLFSNMIMMGLILSVRKTYKKYMFSVK | failed
MKRVPWVVGGLILIMAYNAALGTLAYWQRRDIIDESLREAVVVADILVREVEANLDRIDRTLSGLTEVLRAYPSAIDVHDPFTHRLLLRRHAITPSLAALFLIGGDGRLRNASLTDKVSEIDVSGEDYFAFHLSNVDDEFFIGAVTTNRLDKSWVIPVSRAVRDSFGRLTGVVAATITTDSIDQMIHSHQLSEGFAVTITQRDAGMIGCLGFTRCWGEGAPHRGDEGLAESGGSGEEVHYLPNGPGVGAFLRGPTYGVEVTVQASDRTLLQPWREKLAFILVLQVFGTLGLGFGITSLYYQMHHRRVSLLDLERANASLESKVAERTRQLAEGEERMRGFIMAARDAVVIIDQKGIISEFNPSATELFGYDVEEVRGQSVNMLMPATYARDHDGHLRKGKPSGQRAIGRGREMIGRRKNGSEFPIELTVGTQSFDGTRVHIGVIRDITERKATEETLRRLANIDGLTGVLNRRSFTEESELLLSLANRHGRRLSMMIVDADHFKGVNDTYGHDAGDRVLKALTGEIAGVLRKTDLLGRIGGEEFAILLPETDQEGAEGLAWRVVLAIRALEVPLPEGGVLKVTVSVGVSCRNTEAATFDWMLKEADTALYAAKHGGRDRVACFGQTQSVARS | failed
MKRVVEAWDRFQIPLYITALIAGALVGLQWPGSTGGFESAINPALMALLYATFLGIPITRIGAALKDLRFLIVLMSVNFVAVPLVAFALSRFIAGDEALLIGFLLVILAPCIDYVIVFAGLARAAQDKLLAATPILMLVQILLIPVFLAVFVGSDALGSISFGPFVEAFFLLILIPLVAAAGTQQVARKWQVGRTIMAAAEAIMVPLMMLTLFAVIASQVEAVSGQFTDIATVVPLYVAFLMVMIPIGGGISKLGGLGFKEQRAIVFSGATRNSLVVLPLALALPAGLEIAAVVVVTQTLVELIGMVVYVRIIPLIFHEKQTYRKLSGIGES | failed
MKSASGQEKSIVVRRFDPARFVALVRKESLQAMRDPSTLLIALVLPLILLFLFAYAVSLDVRHVRIGVVLESPGATARTLADAFSGTHYLDVTFAYDRREVAGKLIAGELRGYVVIPQNFERHFADTGSPLVQIITDGSQPNTANFVANYAQGVVQTWMASLTETMPMPAVQLEPRYWFNPELASRRALVPGAIAIIMTIIGTLLTALVVAREWERGTMEAILSTPASVLEILVGKLLPYFVLGMLSTLIAAALAVFLFNVPLRGSLFALLVLSAVFMMPALGQGLLISSLARNQFLASQLALFSGYLPAFMLSGFLFEIDAMPALIRAITWLIPARYFVSSLKTIFLAGDVWSVFLPDLLGMATIGLIFFLIAQRYTRKSLE | failed
MKSEMVLSFMATLAQEESHTKSEIMNASIEMRFRRGIFLTPTLLGYDHDEDGNLVVNEGEAKIVRLIFMMYLNGCTCQEIADTMTELGCETKKGNTVWSPGSILQILQNERHCGDVLARKTYTPNYLNHKSKKNMQNRPQYRKRNHHEAIISRDDFIAVQRLISNAKYGNKGILPELKVISNGVLKGFVSINPRWAGFKENDYISASLSVYDQMEQLSPSASSVEVQSGDFDLRGYEIARSQFFDGTDRITVTFSLNDIKFSTAAVRKLNSTLVELLLHPNKHLFAVRTASQAHRNAMQWAKKRGELSVPRAVSGTAFMPTVYALLGWNTDCRYRITGIRRGNGNDAVLLFNLEETEIFIPSDVIDEQQTSDARTDVKPFTDNQKKNVRAYPPDWADTFGSNYYCHAQAHELAGFNSRDVISNEAVAYKDSDIQVTSPDEVEKNIEQLMSDMKENSNELEHHHHHH | failed
MKSFSIPIRFMLISSFFMSFGYFAVYAFLAIYLLSFLHFSTFQVGTVLTVIIITSRVIPLFSGLIADKIGYIIMMIAGLFLRGIGFIALGICSDFYTVSISSALIGFGTAFYEPAARAIFGSQPAHLRKNLFTYLNLSFNCGAIIGPIAGGFLLLLDPIYAFSLTGSLMLLFALIFYLLKNHFQVTTESTSIALGIQTILQNKSFLLFSFIMIFFYIMFTQLTVALPLHMKNISNSNQLATLVITINAITGVIFMVLFRKLFHKYNTLSFIKYGILLMSISFLLIPLFQHPYWLFICVIFFTIGETLVLPNADIAIANYSNESYTATFFGFYQLSLAFGFIIGNYTGTWFKSKLNGMYTPWLIFGGIGLIGFISLHILNIKKERSKEDIYLLEKY | failed
